{
  "source": "patent US7214519B2",
  "about": "“Screening method for identifying heme independent modulators of soluble guanylyl cyclase (sGC) activity using αβCys105 mutant sGC” (Board of Regents of the University of Texas System, priority 2003, dated 2007)",
  "key": {"αβ^Cys105 mutant sGC": {"molecular_target": "T1, αβ^Cys105 mutant sGC (Homo sapiens, UniProt Q02108+Q02153, H105C)", "T1 construct": "made in house; host or cells: Sf9 cells (baculovirus)", "T1 sequence (Q02153 1-619 H105C)": "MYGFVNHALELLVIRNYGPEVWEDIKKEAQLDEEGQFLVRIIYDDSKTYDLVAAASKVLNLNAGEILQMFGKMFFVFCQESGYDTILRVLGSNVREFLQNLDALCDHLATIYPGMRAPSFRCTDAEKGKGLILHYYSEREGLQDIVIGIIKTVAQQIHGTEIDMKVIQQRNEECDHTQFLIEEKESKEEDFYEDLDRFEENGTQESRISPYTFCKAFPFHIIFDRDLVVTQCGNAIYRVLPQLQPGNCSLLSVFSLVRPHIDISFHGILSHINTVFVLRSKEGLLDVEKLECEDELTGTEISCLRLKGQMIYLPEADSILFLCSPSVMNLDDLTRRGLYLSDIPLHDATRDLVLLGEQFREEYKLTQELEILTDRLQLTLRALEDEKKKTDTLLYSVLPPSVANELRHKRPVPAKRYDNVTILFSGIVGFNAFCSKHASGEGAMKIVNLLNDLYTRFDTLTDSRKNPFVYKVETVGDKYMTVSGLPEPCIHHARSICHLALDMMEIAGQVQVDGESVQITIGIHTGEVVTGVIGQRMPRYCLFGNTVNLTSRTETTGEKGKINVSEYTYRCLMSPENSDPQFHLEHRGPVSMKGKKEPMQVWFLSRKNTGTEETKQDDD", "T1 sequence (Q02108 1-690)": "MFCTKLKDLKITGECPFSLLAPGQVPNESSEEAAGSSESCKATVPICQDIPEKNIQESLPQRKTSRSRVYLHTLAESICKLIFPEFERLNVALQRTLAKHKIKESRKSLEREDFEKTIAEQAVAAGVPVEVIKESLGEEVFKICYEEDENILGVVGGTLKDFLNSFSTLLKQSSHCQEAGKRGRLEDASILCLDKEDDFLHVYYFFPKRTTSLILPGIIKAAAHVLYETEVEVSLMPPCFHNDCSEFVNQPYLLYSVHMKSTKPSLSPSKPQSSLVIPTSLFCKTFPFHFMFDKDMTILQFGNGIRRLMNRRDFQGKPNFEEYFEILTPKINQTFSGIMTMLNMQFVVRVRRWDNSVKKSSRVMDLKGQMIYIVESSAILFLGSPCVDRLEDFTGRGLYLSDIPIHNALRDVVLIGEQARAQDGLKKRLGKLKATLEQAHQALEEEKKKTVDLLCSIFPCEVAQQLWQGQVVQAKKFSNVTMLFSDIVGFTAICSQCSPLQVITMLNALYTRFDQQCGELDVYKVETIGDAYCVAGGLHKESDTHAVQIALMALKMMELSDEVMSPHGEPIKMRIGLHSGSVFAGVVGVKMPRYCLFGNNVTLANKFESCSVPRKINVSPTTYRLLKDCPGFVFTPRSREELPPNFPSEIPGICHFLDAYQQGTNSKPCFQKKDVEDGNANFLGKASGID", "test": "Assay of sGC activity ([32P]cGMP formation from GTP), purified αβ^Cys105 mutant enzyme", "format": "biochemical", "conditions": "for PPIX activation, fold: 1 μM PPIX", "experimental": "sGC Expression and Purification. […] Purification of sGC was performed as described earlier (26), the disclosure of which is hereby incorporated herein by reference, with the following modifications. Cells were harvested 72 h post infection, resuspended in loading buffer (25 mM triethanolamine, pH 7.5. 10 glycerol, 4 mM MgCl2 and 1 mM phenylmethylsulfonyl fluoride, and 5 μg/ml each of pepstatin A, leupeptin, aprotinin, and chymostatin,) and lysed by sonication. The lysate was subjected to 100,000×g centrifugation for 1 h. The high-speed supernate was loaded on a 60 ml DEAE-Sepharose (Amersham Pharmacia Biotech) column and washed with 60 ml of loading buffer without protease inhibitors. The proteins were eluted with loading buffer containing 250 mM NaCl and the eluate was directly loaded on a 30 ml His-Bind resin (Novagen) column. The column was washed with 60 ml of loading buffer followed by 60 ml of loading buffer with 45 mM imidazole. The enzyme was eluted with 175 mM imidazole and 2 ml fractions were collected. […] The enzyme at this stage was approximately 90–95% pure. To remove imidazole, sGC-containing fractions were diluted 3 fold with 25 mM triethanolamine pH 7.5, loaded on a 2 ml Hi-Trap DEAE-Sepharose column (Amersham Pharmacia Biotech), washed with 10 ml of loading buffer and eluted with 25 mM triethanolamine pH 7.5, 250 mM NaCl, 10 glycerol, 4 mM MgCl2, 0.5 mM EDTA, 0.5 mM EGTA. The enzyme obtained at this stage (95% or greater purity) was used for experiments.\nAssay of sGC Activity. Enzyme activity was assayed by formation of [^32P] cGMP from α[^32P]GTP at 37° C. in a final volume of 100 μl. Incubation medium contained 50 mM triethanolamine-HCl buffer (pH 7.4), 1 mM 3-isobutyl-1-methylxanthine (IBMX), 1 mg/ml BSA. 1 mM cGMP, 3 mM MgCl2, 0.05 mg/ml creatine phosphokinase, 5 mM creatine phosphate, 0.1 mM EGTA. 200 μM GTP (about 10.000 cpm/pmol). The reaction was started by addition of the substrate (GTP) with or without activators. 1 mM DTT, GSH or cysteine were added to the incubation medium before the addition of GTP. Thiol concentration varied in some experiments as indicated. Samples containing 0.2 μg sGC were incubated for 10 or 15 min and the reaction was stopped by addition of 500 μl 150 mM zinc acetate and 500 μl 180 mM sodium carbonate. The pellet of zinc carbonate containing most of the unreacted GTP was removed by centrifugation and the supernatant fractions were loaded onto columns filled with 1 g of neutral alumina. Columns were then eluted with 10 ml 0.1 M Tris-HCl buffer (pH 7.5) and Cherenkov radiation in flow through plus eluate was counted in a LKB liquid scintillation spectrometer. Samples incubated in the absence of sGC were used as a negative control. The concentration of dimethylsulfoxide (DMSO) used as a vehicle for YC-1 was not higher than 0.1 and had no effect on sGC activity as determined previously."}, "[1]": {"molecular_target": "T2, Sf9 cells expressing αβ^Cys105 sGC (Homo sapiens, UniProt Q02108+Q02153, H105C)", "T2 construct": "expressed in transfected cells; host or cells: Sf9 cells infected with baculoviruses", "T2 sequence (Q02153 1-619 H105C)": "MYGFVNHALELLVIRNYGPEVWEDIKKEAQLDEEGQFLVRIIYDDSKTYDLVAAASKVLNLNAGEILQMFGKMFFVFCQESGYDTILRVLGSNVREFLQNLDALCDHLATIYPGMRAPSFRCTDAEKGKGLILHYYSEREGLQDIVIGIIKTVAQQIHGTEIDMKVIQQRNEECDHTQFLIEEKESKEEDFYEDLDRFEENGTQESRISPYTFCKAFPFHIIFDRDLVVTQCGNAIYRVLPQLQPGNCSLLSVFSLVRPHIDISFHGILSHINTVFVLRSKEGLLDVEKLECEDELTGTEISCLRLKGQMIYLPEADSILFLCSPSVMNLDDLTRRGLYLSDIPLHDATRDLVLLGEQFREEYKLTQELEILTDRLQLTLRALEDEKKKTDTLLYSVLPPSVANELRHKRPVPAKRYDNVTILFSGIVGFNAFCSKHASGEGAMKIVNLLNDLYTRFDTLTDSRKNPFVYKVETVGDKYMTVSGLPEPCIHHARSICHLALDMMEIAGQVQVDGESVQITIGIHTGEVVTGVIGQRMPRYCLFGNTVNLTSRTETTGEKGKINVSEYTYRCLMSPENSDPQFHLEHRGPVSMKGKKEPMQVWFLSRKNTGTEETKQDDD", "T2 sequence (Q02108 1-690)": "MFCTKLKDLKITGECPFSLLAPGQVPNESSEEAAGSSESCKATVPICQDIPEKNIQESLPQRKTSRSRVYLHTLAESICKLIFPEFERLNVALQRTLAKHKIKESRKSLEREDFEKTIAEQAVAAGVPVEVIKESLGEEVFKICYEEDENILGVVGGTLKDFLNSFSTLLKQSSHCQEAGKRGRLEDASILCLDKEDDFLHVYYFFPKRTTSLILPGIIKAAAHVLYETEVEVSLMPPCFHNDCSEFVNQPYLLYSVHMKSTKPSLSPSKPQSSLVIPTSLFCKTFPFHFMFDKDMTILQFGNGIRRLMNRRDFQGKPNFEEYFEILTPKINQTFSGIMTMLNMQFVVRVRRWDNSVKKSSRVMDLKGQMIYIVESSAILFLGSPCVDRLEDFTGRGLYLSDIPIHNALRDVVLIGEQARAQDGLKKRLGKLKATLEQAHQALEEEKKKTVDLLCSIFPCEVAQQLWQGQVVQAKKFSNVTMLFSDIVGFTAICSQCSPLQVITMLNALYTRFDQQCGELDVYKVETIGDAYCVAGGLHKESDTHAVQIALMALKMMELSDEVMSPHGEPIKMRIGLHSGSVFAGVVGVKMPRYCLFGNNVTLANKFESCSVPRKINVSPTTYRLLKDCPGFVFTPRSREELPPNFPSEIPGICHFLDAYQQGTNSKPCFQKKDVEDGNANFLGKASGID", "test": "cGMP accumulation in intact Sf9 cells expressing αβ^Cys105 sGC", "format": "cell-based", "experimental": "Assay of cGMP Accumulation in Intact Cells. […] The reaction was terminated by addition of 50 μl of 1 M perchloric acid and cGMP was extracted on ice for 1 h. The extract was centrifuged, neutralized with 2M K2CO3 and used for cGMP determination by radioimmunoassay (9, 27). The pellet was dissolved in 0.1 M NaOH and used for protein assay by the method of Lowry (28).\nAccumulated cGMP was extracted and quantified as described in Materials and Methods. Values are shown as means±s.d. The differences in intracellular accumulation of cGMP in Sf9 cells expressing the wild type enzyme or the mutant form are discussed below."}},
  "note": "Several values for one entry are separate records, joined by “and”; a condition that tells them apart may be missing. Identical values can stand only once.",
  "data": [
    {"substance": "αβ^Cys105: heme-deficient, constitutively active human soluble guanylyl cyclase mutant; β subunit carries His105→Cys substitution", "values": [
      {"measurement": "Km", "setting": "αβ^Cys105 mutant sGC; +DTT", "result": "153 ± 11", "unit": "µM"},
      {"measurement": "PPIX activation, fold", "setting": "αβ^Cys105 mutant sGC; +DTT", "result": 5.4, "unit": "fold"},
      {"measurement": "Specific activity", "setting": "αβ^Cys105 mutant sGC; +NO, with DTT, after heme reconstitution", "result": "0.44 ± 0.08", "unit": "µmol/min/mg"},
      {"measurement": "Specific activity", "setting": "αβ^Cys105 mutant sGC; +NO, without DTT, after heme reconstitution", "result": "1.2 ± 0.2", "unit": "µmol/min/mg"},
      {"measurement": "Specific activity", "setting": "αβ^Cys105 mutant sGC; Basal, with DTT (1 mM)", "result": "0.12 ± 0.01", "unit": "µmol/min/mg"},
      {"measurement": "Specific activity", "setting": "αβ^Cys105 mutant sGC; Basal, without DTT", "result": "1.2 ± 0.3", "unit": "µmol/min/mg"},
      {"measurement": "Km", "setting": "αβ^Cys105 mutant sGC; No DTT", "result": "~150 µM and 150 µM"},
      {"measurement": "PPIX activation, fold", "setting": "αβ^Cys105 mutant sGC; No DTT", "result": 1.8, "unit": "fold"},
      {"measurement": "Specific activity", "setting": "αβ^Cys105 mutant sGC; absence of thiols, n=4 independent purifications", "result": "0.0012 ± 0.0003", "unit": "µmol/min/mg"},
      {"measurement": "Specific activity", "setting": "αβ^Cys105 mutant sGC; sample without any thiols (FIG. 1B, defined as 100)", "result": "1e-06 ± 1e-07", "unit": "µmol/min/mg"},
      {"measurement": "basal cGMP accumulation relative to NO-activated cells overexpressing wild type enzyme", "setting": "[1]", "result": "about ten times higher"},
      {"measurement": "basal level of cGMP accumulation", "setting": "[1]; basal, 0.5 mM IBMX", "result": 33, "unit": "nmol/mg/5 min"}
    ]}
  ]
}
